From ChEMBL document CHEMBL1143972, “Electronic effects of para-substitution on acetophenones in the reaction of rat liver 3alpha-hydroxysteroid dehydrogenase” (Bioorg Med Chem, 2008)

Assays:
[1] = molecular target: T1, 3-alpha-hydroxysteroid dehydrogenase (Rattus norvegicus) (UniProt P23457); experiment: Ratio of Vmax to Km for rat liver 3-alpha-HSD for formation of corresponding (S)-alcohol products
T1 sequence (whole entry): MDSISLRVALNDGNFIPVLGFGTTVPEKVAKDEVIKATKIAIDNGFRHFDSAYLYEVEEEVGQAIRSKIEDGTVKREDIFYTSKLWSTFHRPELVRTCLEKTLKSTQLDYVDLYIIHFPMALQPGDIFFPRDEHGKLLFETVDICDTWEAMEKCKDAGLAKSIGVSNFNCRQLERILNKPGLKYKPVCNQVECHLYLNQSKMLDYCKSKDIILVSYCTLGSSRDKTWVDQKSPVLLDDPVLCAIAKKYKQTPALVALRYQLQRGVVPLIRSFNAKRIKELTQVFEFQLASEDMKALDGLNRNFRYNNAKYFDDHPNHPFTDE

[2] = molecular target: T1, 3-alpha-hydroxysteroid dehydrogenase (Rattus norvegicus); experiment: Ratio of Vmax to Km for rat liver 3-alpha-HSD for formation of corresponding (R)-alcohol products
[3] = substrate: CC(=O)c1ccc(C)cc1; experiment: (§1) Activity of rat liver 3-alpha-HSD assessed as formation of corresponding (R)-alcohol products
[4] = substrate: CC(=O)c1ccc(N(C)C)cc1; experiment: as §1
[5] = substrate: COc1ccc(C(C)=O)cc1; experiment: (§2) Activity of rat liver 3-alpha-HSD assessed as formation of corresponding (S)-alcohol products
[6] = substrate: CC(=O)c1ccc([N+](=O)[O-])cc1; experiment: as §2
[7] = substrate: CC(=O)c1ccc(C)cc1; experiment: as §2
[8] = substrate: CC(=O)c1ccc(N(C)C)cc1; experiment: as §2
[9] = substrate: CC(=O)c1ccc(Br)cc1; experiment: as §2
[10] = substrate: CC(=O)c1ccccc1; experiment: as §2
[11] = substrate: CC(=O)c1ccc(C#N)cc1; experiment: as §2
[12] = substrate: CC(=O)c1ccc(C)cc1; experiment: (§3) Activity of rat liver 3-alpha-HSD assessed as formation of corresponding (R)-alcohol products per mg of protein
[13] = substrate: CC(=O)c1ccc(N(C)C)cc1; experiment: as §3
[14] = substrate: COc1ccc(C(C)=O)cc1; experiment: (§4) Activity of rat liver 3-alpha-HSD assessed as formation of corresponding (S)-alcohol products per mg of protein
[15] = substrate: CC(=O)c1ccc([N+](=O)[O-])cc1; experiment: as §4
[16] = substrate: CC(=O)c1ccc(C)cc1; experiment: as §4
[17] = substrate: CC(=O)c1ccc(N(C)C)cc1; experiment: as §4
[18] = substrate: CC(=O)c1ccc(Br)cc1; experiment: as §4
[19] = substrate: CC(=O)c1ccccc1; experiment: as §4
[20] = substrate: CC(=O)c1ccc(C#N)cc1; experiment: as §4

Work on `CC(=O)c1ccc(C)cc1` yielded a Ratio [1] of 7.21 µL/min and a Ratio [2] of 1.01 µL/min.

Molecule `CC(=O)c1ccc(Br)cc1` has a Ratio [1] of 30.6 µL/min.

With `COc1ccc(C(C)=O)cc1` the Ratio [1] was 0.97 µL/min.

`CC(=O)c1ccc(N(C)C)cc1` gave a Ratio [1] of 0.41 µL/min and a Ratio [2] of 0.09 µL/min.

Molecule `CC(=O)c1ccccc1` has a Ratio [1] of 49 µL/min.

Molecule `CC(=O)c1ccc(C#N)cc1` has a Ratio [1] of 9440 µL/min.

`CC(=O)c1ccc([N+](=O)[O-])cc1` was tested, and the Ratio [1] was 61700 µL/min.

B1: 3-alpha-hydroxysteroid dehydrogenase (Rattus norvegicus), P23457 (protein)
chain: T1 sequence (whole entry)
With B1 the Km [3] was 13.2 mM, the Km [4] was 19.2 mM and the Km [5] was 5.59 mM. For the same molecule, the Km [6] was 20 µM, the Km [7] was 27.7 mM and the Km [8] was 21.9 mM. For the same molecule, the Km [9] was 10.3 mM, the Km [10] was 10.4 mM and the Km [11] was 110 µM. The Vmax [12] was 0.013 µmol/min, the Vmax [13] was 0.002 µmol/min and the Vmax [14] was 0.005 µmol/min. For the same molecule, the Vmax [15] was 1.13 µmol/min, the Vmax [16] was 0.2 µmol/min and the Vmax [17] was 0.009 µmol/min. For the same molecule, the Vmax [18] was 0.315 µmol/min, the Vmax [19] was 0.51 µmol/min and the Vmax [20] was 1.08 µmol/min.
